Source: paper PMC12282641

How the values were obtained:
[1] = HYlight FBP sensor, axons, 100 AP 10 Hz; details: glycan lost; control: WT-HK1-FLAG
[2] = multi-electrode array, rat cortical neurons; details: glycan lost; control: WT-HK1
[3] = iATPSnFR1.0 imaging, hippocampal neurons, 100 AP 10 Hz; details: glycan lost; control: WT-HK1-BFP
[4] = anti-HK1 blot of HEK293T lysates; details: glycan lost; control: WT-HK1
[5] = GCaMP6s imaging, 100 AP 10 Hz; details: glycan lost; control: WT-HK1-BFP
[6] = fractionation blots for Aldo A, PGK, PKM2, HEK293T; details: glycan lost; control: WT-HK1 cells, response to OGT + Thiamet-G

B1: Hexokinase 1 (HK1): T259A (protein)
parent chain: MIAAQLLAYYFTELKDDQVKKIDKYLYAMRLSDETLIDIMTRFRKEMKNGLSRDFNPTATVKMLPTFVRSIPDGSEKGDFIALDLGGSSFRILRVQVNHEKNQNVHMESEVYDTPENIVHGSGSQLFDHVAECLGDFMEKRKIKDKKLPVGFTFSFPCQQSKIDEAILITWTKRFKASGVEGADVVKLLNKAIKKRGDYDANIVAVVNDTVGTMMTCGYDDQHCEVGLIIGTGTNACYMEELRHIDLVEGDEGRMCINTEWGAFGDDGSLEDIRTEFDREIDRGSLNPGKQLFEKMVSGMYLGELVRLILVKMAKEGLLFEGRITPELLTRGKFNTSDVSAIEKNKEGLHNAKEILTRLGVEPSDDDCVSVQHVCTIVSFRSANLVAATLGAILNRLRDNKGTPRLRTTVGVDGSLYKTHPQYSRRFHKTLRRLVPDSDVRFLLSESGSGKGAAMVTAVAYRLAEQHRQIEETLAHFHLTKDMLLEVKKRMRAEMELGLRKQTHNNAVVKMLPSFVRRTPDGTENGDFLALDLGGTNFRVLLVKIRSGKKRTVEMHNKIYAIPIEIMQGTGEELFDHIVSCISDFLDYMGIKGPRMPLGFTFSFPCQQTSLDAGILITWTKGFKATDCVGHDVVTLLRDAIKRREEFDLDVVAVVNDTVGTMMTCAYEEPTCEVGLIVGTGSNACYMEEMKNVEMVEGDQGQMCINMEWGAFGDNGCLDDIRTHYDRLVDEYSLNAGKQRYEKMISGMYLGEIVRNILIDFTKKGFLFRGQISETLKTRGIFETKFLSQIESDRLALLQVRAILQQLGLNSTCDDSILVKTVCGVVSRRAAQLCGAGMAAVVDKIRENRGLDRLNVTVGVDGTLYKLHPHFSRIMHQTVKELSPKCNVSFLLSEDGSGKGAALITAVGVRLRTEASS
In the case of B1, the “other: activity-evoked glycolysis (FBP level)” value [1] is reported as “abolishes”, the “other: neuronal network activity” value [2] is reported as “decreases” and the “other: axonal ATP recovery after stimulation” value [3] is reported as “abolishes”. The expression_or_secretion [4] was “no change”, the “other: presynaptic calcium dynamics” value [5] was “no change” and the “other: glycolytic enzyme recruitment to mitochondria” value [6] was “abolishes”.
